Experimental data taken from paper PMC7667037.

Key:
Settings in all cases: EMSA: 1 nM probe, 1 mM Tris-HCl pH 7.5, 0.1 mM EDTA, 0.2 mM DTT, 5 mM MgCl2, 10 mM KCl, 20 min 37 C; PhoP with 0.1 M acetyl phosphate; footprinting DNase I …
[1] = system: T1, LmiA (Z4267) (Escherichia coli O157:H7 (EHEC; strain EDL933?)), ORF:92023632; assay: EMSA
T1 sequence: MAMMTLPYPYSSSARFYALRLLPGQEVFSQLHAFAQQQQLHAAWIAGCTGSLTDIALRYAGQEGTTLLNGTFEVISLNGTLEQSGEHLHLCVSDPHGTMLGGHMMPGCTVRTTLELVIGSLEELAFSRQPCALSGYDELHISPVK

[2] = molecular target: T2, PhoP (Escherichia coli O157:H7 (EHEC; strain EDL933?)) (UniProt Q8X738); assay: EMSA
T2 sequence: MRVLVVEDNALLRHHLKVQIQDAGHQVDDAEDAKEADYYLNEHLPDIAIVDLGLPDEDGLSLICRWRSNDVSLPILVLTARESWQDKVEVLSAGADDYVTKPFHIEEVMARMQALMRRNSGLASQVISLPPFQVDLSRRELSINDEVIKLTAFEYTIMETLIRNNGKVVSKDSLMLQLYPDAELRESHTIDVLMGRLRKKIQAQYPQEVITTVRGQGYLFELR

[3] = molecular target: T2, PhoP (Escherichia coli O157:H7 (EHEC; strain EDL933?)); assay: competition

Sequence	binding [1]	binding [2]	also measured
CATTAGCCATTGGAAACTCACGTAATCATTAATTATGAATATTCCATTAAATAGTACTGTACAACAGCTTCCTTTCTACTCTATTCTTAGACGATGTAAGTTCACCATATTTTTTCTCATTGTTCAACCACCAGGATGAATAAAATTTAAAAATGTTATCCTCATATAAAATAAAACTTCTCAATGGTGCGATGCG (double strand) [PLEE4]	no binding	–	–
AGATTCATCTGCAGGCTCTGAAGTAAGTATACGTGTGAATATTATTGCTTGAAAAAGCGTATTGGATAATATATACAGTATATGTACTTTATGTACATTGCAACTATTTAAATAATATAATAGTTGCCTATGGGATAATTTGGTTATTTATAACCAGGTAAATGTCTAAATTAGACAAAAGGAGAAAGATCAATGGAAGCAGCAAATTTAAGTCCTTCTGGTGCAGTAATG (double strand) [PLEE2/3]	no binding	–	–
GTCCAGTCAAAGAAAACAATTATCTGACTTACGTCACGTTTTCAGCCCCGCCCCTGTGGAATTTATTCCACTTTGCAGAATCACGAATAAGCGTAGCAAAATCTTTTCGTTGTGCCGTCACAAACCCTGACTTATATCAGAATATGACTGATGCAGCGTCGATATTATCCGTAATACGTCCGAGTTTCGGAGTACTCCAATGATGACATTGCCCTACCCATATT (double strand) [PlmiA]	–	binds	–
GTCCAGTCAAAGAAAACAATTATCTGACTTACGTCACGTTTTCAGCCCCGCCCCTGTGGAATTTATTCCACTTTGCAGAATCACGAATAAGCGTAGCAAAATCTTTTCGTTGTGCCGTCACAAACCCTGACTTATATCAGAATATGACTGATGCAGCGTCGATATTATCCGTAATACGTCCGAGTTTCGGAGTACTCCAATGATGACATTGCCCTACCCATATT (double strand) [PlmiA unlabeled competitor]	–	–	binding [3]: binds
AATATGGGTAGGGCAATGTCATCATTGGAGTACTCCGAAACTCGGACGTATTACGGATAATATCGACGCTGCATCAGTCATATTCTGATATAAGTCAGGGTTTGTGACGGCACAACGAAAAGATTTTGCTACGCTTATTCGTGATTCTGCAAAGTGGAATAAATTCCACAGGGGCGGGGCTGAGTTGGTGACGAGGGTCAGATAATTGTTTTCTTTGACTGGAC (double strand) [PlmiA-2]	–	no binding	–
GTCCAGTCAAAGAAAACAATTATCTCAGCCCCGCCCCTGTGGAATTTATTCCACTTTGCAGAATCACGAATAAGCGTAGCAAAATCTTTTCGTTGTGCCGTCACAAACCCTGACTTATATCAGAATATGACTGATGCAGCGTCGATATTATCCGTAATACGTCCGAGTTTCGGAGTACTCCAATGATGACATTGCCCTACCCATATT (double strand) [PlmiA-1]	–	no binding	–
